{"source": "the supplement of paper PMC6379048", "key": {"[1]": {"biological_target": "T1, MEX3A (UniProt A1L020)", "T1 sequence": "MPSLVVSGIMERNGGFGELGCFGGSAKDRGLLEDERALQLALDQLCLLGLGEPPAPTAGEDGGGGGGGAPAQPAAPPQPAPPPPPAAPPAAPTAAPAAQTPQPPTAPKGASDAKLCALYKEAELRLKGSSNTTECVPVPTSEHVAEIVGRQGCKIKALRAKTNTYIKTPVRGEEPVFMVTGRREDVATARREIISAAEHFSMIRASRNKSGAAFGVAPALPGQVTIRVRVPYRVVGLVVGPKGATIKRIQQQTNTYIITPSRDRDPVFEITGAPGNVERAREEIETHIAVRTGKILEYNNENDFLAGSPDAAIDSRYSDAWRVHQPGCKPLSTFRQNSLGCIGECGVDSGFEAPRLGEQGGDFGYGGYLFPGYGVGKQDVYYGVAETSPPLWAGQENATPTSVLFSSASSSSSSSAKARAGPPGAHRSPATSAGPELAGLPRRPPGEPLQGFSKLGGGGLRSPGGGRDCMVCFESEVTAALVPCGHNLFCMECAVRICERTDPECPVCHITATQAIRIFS", "test": "EC50 of free RNA motif oligo competing protein binding to immobilised probe", "how_it_was_run": "(§1)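 Over three biological replicates and two independent experiments, proteins captured on NHS-Sepharose beads carrying 5′-amino-C6 RNA oligos were quantified by label-free LC-MS/MS and normalised to the control. Capture lasted 30 min at 4°C and followed a 1 h pre-incubation at 4°C of HEK293-FT lysate (2.5 mg protein/well) with the same oligos in free form (0 nM to 30 μM). EC50 was taken from a four-parameter log-logistic fit, and Kd was EC50 corrected by a protein-dependent depletion factor.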"}, "[2]": {"biological_target": "TOE1 (UniProt Q96GM8)", "test": "EC50 of free RNA motif oligo competing protein binding to immobilised probe", "how_it_was_run": "as §1"}, "[3]": {"biological_target": "T2, HNRNPD (UniProt Q14103)", "T2 sequence": "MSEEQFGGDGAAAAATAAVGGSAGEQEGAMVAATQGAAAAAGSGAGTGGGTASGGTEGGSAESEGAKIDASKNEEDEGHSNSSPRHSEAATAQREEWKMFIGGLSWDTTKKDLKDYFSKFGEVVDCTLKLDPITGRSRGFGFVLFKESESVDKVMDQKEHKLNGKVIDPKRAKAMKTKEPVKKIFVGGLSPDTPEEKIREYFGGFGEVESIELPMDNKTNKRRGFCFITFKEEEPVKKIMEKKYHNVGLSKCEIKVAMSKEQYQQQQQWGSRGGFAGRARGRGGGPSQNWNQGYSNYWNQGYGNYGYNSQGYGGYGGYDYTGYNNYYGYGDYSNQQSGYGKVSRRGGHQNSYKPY", "test": "EC50 of free RNA motif oligo competing protein binding to immobilised probe", "how_it_was_run": "as §1"}, "[4]": {"biological_target": "T3, KHSRP (UniProt Q92945)", "T3 sequence": "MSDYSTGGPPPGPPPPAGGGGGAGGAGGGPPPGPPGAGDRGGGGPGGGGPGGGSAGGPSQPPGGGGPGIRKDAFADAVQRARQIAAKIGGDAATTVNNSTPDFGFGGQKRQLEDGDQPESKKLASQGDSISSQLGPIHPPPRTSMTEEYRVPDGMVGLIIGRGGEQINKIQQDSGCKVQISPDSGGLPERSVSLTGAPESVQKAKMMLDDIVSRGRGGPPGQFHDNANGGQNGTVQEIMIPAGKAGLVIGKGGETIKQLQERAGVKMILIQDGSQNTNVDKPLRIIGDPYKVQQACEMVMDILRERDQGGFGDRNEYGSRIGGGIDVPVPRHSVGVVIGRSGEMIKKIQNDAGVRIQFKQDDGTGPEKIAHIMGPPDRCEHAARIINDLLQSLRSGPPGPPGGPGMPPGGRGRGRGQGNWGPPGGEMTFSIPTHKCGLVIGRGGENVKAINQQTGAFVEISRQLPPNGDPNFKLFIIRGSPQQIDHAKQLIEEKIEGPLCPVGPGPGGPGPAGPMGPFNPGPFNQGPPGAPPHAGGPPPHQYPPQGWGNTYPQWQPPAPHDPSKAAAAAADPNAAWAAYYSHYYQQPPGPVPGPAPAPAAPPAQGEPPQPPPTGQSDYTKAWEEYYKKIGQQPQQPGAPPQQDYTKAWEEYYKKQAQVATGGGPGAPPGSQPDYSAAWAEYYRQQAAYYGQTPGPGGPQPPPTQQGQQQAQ", "test": "EC50 of free RNA motif oligo competing protein binding to immobilised probe", "how_it_was_run": "as §1"}, "[5]": {"biological_target": "T4, RBM7 (UniProt Q9Y580)", "T4 sequence": "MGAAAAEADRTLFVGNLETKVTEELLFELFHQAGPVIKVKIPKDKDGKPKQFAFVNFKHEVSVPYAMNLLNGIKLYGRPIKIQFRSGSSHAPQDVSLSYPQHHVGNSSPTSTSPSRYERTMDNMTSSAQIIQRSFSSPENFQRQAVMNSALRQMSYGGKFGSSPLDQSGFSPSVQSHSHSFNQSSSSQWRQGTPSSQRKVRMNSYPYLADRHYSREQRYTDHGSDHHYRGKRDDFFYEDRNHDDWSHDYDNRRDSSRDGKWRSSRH", "test": "EC50 of free RNA motif oligo competing protein binding to immobilised probe", "how_it_was_run": "as §1"}, "[6]": {"biological_target": "T5, CSTF1 (UniProt Q05048)", "T5 sequence": "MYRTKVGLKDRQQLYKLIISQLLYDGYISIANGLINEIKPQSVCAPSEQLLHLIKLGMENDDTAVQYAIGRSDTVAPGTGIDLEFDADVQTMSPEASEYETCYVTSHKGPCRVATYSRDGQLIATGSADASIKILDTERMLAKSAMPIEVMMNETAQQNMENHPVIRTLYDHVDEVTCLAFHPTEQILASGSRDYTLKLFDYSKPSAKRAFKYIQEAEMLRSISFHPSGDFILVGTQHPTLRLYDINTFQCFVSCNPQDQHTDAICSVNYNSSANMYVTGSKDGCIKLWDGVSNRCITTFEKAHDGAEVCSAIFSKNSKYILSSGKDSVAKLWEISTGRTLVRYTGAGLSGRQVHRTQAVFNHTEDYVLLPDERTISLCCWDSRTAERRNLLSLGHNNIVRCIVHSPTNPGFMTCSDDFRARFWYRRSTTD", "test": "EC50 of free RNA motif oligo competing protein binding to immobilised probe", "how_it_was_run": "as §1"}, "[7]": {"biological_target": "NCL (UniProt P19338)", "sequence (P19338 whole entry)": "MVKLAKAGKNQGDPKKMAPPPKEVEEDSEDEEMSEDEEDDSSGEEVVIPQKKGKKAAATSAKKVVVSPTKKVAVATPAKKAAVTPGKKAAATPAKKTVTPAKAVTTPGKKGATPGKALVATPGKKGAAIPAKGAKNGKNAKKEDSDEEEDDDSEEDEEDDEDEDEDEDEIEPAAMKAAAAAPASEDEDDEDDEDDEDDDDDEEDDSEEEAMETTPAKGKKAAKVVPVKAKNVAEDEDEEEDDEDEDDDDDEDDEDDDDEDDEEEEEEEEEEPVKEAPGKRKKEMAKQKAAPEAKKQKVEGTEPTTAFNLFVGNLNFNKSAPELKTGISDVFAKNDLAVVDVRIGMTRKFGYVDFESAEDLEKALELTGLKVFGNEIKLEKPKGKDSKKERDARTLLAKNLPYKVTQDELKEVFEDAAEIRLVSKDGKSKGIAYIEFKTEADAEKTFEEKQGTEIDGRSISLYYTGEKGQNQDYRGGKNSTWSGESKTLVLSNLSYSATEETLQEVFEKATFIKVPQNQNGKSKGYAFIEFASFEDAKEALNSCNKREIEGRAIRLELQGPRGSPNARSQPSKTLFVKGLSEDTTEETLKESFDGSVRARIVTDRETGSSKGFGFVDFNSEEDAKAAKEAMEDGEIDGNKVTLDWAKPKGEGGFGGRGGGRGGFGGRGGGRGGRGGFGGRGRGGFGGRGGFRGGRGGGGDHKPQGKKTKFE", "test": "EC50 of free RNA motif oligo competing protein binding to immobilised probe", "how_it_was_run": "as §1"}, "[8]": {"biological_target": "IGF2BP1 (UniProt Q9NZI8)", "sequence (Q9NZI8 whole entry)": "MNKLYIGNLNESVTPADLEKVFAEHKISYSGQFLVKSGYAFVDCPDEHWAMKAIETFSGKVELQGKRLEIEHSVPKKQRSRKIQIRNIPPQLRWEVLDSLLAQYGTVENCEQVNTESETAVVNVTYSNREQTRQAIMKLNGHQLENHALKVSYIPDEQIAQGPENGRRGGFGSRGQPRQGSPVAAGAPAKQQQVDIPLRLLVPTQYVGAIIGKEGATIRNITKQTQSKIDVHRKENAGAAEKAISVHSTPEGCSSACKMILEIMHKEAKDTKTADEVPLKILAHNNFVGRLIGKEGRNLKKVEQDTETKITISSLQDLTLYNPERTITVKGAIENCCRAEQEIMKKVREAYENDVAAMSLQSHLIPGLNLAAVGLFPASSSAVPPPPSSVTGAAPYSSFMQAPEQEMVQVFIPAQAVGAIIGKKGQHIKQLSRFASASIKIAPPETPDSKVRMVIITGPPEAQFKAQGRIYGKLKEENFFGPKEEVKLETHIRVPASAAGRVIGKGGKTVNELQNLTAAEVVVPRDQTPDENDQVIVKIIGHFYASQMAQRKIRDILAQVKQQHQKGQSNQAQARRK", "test": "Kd (EC50 corrected by depletion factor)", "how_it_was_run": "as §1"}}, "data": [{"sequence": "AAUAAA", "values": [{"measurement": "EC50", "setting": "[1]", "result": 1.47, "unit": "µM"}, {"measurement": "EC50", "setting": "[2]", "result": 2.11, "unit": "µM"}, {"measurement": "EC50", "setting": "[3]", "result": 6.52, "unit": "µM"}, {"measurement": "EC50", "setting": "[4]", "result": 2.22, "unit": "µM"}, {"measurement": "EC50", "setting": "[5]", "result": 1.93, "unit": "µM"}, {"measurement": "EC50", "setting": "[6]", "result": 0.0539, "unit": "µM"}]}, {"sequence": "CUGUCCU", "values": [{"measurement": "EC50", "setting": "[7]", "result": 0.321, "unit": "µM"}, {"measurement": "Kd", "setting": "[8]", "result": 1.24, "unit": "µM"}]}, {"sequence": "UAUUUAU", "values": [{"measurement": "EC50", "setting": "[1]", "result": 0.989, "unit": "µM"}, {"measurement": "EC50", "setting": "[2]", "result": 1.42, "unit": "µM"}, {"measurement": "EC50", "setting": "[7]", "result": 2.17, "unit": "µM"}, {"measurement": "EC50", "setting": "[3]", "result": 0.653, "unit": "µM"}, {"measurement": "EC50", "setting": "[4]", "result": 1.73, "unit": "µM"}, {"measurement": "EC50", "setting": "[5]", "result": 0.312, "unit": "µM"}, {"measurement": "EC50", "setting": "[6]", "result": 0.574, "unit": "µM"}]}]}
